Results published in IntAct's records for PubMed 35512704.

B1: Speckle-type POZ protein (Homo sapiens), O43791 (parent)
chain: MSRVPSPPPPAEMSSGPVAESWCYTQIKVVKFSYMWTINNFSFCREEMGEVIKSSTFSSGANDKLKWCLRVNPKGLDEESKDYLSLYLLLVSCPKSEVRAKFKFSILNAKGEETKAMESQRAYRFVQGKDWGFKKFIRRDFLLDEANGLLPDDKLTLFCEVSVVQDSVNISGQNTMNMVKVPECRLADELGGLWENSRFTDCCLCVAGQEFQAHKAILAARSPVFSAMFEHEMEESKKNRVEINDVEPEVFKEMMCFIYTGKAPNLDKMADDLLAAADKYALERLKVMCEDALCSNLSVENAAEILILADLHSADQLKTQAVDFINYHASDVLETSGWKSMVVSHPHLVAEAYRSLASAQCPFLGPPRKRLKQS
partner: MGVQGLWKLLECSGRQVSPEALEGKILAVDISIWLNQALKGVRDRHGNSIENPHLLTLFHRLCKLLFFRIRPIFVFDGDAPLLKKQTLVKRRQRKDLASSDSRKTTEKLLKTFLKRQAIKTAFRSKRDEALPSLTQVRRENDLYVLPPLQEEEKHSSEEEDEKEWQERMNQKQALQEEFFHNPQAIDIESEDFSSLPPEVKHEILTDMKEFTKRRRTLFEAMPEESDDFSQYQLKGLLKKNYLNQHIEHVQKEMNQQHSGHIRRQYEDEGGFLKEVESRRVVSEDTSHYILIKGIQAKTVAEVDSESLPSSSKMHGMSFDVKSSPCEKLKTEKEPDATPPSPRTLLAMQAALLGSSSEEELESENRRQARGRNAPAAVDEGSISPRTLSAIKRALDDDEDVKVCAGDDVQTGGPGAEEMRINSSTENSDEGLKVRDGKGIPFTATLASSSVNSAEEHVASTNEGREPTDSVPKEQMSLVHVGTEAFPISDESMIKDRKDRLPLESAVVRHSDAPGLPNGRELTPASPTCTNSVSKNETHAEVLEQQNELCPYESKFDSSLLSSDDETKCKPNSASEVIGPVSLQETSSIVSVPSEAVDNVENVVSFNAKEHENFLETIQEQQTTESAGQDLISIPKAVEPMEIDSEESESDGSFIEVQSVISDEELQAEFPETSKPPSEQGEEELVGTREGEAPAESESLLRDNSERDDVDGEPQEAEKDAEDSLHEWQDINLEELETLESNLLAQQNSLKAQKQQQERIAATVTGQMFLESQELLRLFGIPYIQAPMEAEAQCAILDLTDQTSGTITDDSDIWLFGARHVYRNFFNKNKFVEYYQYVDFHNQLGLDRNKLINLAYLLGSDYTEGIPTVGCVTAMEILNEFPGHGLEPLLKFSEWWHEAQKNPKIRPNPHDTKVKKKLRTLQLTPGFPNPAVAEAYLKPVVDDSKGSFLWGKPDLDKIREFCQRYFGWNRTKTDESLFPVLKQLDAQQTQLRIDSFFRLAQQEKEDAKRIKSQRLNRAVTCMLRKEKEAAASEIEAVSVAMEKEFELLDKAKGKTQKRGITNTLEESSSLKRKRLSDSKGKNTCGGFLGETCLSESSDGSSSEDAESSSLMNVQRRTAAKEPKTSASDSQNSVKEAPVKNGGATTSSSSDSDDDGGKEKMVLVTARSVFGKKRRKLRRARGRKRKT
B2: Speckle-type POZ protein (Homo sapiens), O43791 (parent)
chain: B1 chain
partner: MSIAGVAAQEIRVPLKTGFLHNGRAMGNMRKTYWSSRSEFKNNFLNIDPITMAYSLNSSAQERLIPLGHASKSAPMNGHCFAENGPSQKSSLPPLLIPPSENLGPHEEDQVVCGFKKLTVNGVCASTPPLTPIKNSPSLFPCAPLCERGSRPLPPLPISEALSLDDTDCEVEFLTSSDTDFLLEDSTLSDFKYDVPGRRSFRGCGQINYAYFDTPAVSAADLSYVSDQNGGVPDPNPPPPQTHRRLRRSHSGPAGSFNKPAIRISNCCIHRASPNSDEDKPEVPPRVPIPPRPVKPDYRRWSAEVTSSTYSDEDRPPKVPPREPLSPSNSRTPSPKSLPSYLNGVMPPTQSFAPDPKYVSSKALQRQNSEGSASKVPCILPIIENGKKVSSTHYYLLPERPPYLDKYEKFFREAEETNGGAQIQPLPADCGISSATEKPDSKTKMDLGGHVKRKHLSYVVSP
B3: Speckle-type POZ protein (Homo sapiens), O43791 (parent)
chain: B1 chain
partner: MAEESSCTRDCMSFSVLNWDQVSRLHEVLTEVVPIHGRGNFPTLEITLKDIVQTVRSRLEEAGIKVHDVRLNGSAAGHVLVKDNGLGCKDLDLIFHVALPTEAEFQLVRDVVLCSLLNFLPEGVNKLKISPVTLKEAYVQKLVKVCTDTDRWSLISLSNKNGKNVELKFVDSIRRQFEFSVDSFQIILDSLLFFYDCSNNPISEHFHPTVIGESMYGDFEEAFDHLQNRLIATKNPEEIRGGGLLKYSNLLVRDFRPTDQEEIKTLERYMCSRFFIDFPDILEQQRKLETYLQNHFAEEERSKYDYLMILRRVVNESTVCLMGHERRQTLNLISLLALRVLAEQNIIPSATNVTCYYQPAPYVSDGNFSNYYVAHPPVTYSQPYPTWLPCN
B4: Speckle-type POZ protein (Homo sapiens), O43791 (parent)
chain: B1 chain
partner: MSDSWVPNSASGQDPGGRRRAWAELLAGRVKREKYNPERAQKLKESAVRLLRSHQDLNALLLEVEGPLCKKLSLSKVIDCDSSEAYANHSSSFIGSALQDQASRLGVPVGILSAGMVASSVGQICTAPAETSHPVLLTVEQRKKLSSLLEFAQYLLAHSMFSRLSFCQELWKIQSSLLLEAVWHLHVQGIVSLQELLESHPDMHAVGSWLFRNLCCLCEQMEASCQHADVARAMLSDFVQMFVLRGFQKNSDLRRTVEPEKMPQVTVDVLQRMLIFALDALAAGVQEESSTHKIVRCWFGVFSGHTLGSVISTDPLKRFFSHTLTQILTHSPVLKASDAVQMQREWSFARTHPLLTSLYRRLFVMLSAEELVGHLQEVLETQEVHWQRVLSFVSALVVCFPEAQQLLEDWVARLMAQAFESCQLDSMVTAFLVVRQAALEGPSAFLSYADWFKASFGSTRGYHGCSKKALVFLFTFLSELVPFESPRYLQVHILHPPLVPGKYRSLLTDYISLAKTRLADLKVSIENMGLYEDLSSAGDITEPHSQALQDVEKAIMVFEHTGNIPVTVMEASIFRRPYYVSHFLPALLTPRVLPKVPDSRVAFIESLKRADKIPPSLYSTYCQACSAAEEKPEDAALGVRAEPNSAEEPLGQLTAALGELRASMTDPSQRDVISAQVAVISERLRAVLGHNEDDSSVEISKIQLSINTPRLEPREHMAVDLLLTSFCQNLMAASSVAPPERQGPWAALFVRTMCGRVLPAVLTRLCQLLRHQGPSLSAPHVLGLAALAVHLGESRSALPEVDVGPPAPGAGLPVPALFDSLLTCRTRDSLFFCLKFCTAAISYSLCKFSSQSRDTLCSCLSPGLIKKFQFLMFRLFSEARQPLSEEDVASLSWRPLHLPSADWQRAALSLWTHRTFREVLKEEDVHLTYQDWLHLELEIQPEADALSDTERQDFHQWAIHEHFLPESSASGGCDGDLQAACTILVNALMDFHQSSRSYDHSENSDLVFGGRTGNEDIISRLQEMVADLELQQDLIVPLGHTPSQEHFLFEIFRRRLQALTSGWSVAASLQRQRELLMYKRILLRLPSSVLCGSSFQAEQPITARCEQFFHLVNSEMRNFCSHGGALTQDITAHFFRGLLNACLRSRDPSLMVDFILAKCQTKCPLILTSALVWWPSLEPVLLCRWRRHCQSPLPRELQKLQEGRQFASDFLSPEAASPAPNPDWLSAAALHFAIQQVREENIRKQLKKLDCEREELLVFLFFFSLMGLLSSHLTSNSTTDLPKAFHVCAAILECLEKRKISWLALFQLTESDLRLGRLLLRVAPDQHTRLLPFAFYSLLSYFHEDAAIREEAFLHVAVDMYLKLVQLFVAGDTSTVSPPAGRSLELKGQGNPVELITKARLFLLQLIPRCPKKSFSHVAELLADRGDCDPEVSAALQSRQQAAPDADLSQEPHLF

Variants of: B1
Settings: with ercc5_human ERCC5, P28715

| Variant | effect of a mutation on the interaction |
| --- | --- |
| Y87C | with no effect |

Variants of: B1
Settings: with ercc5_human ERCC5, P28715
Remark: another data set of the same source

| Variant | effect of a mutation on the interaction |
| --- | --- |
| F133V | with no effect |

Variants of: B2
Settings: with errfi_human ERRFI1, Q9UJM3

| Variant | effect of a mutation on the interaction |
| --- | --- |
| F102C | with no effect |

Variants of: B2
Settings: with errfi_human ERRFI1, Q9UJM3
Remark: another data set of the same source

| Variant | effect of a mutation on the interaction |
| --- | --- |
| F133L | with no effect |

Variants of: B2
Settings: with errfi_human ERRFI1, Q9UJM3
Remark: another data set of the same source

| Variant | effect of a mutation on the interaction |
| --- | --- |
| Y87C | with no effect |

Variants of: B2
Settings: with errfi_human ERRFI1, Q9UJM3
Remark: another data set of the same source

| Variant | effect of a mutation on the interaction |
| --- | --- |
| F133V | with no effect |

Variants of: B3
Settings: with tet5c_human TENT5C

| Variant | effect of a mutation on the interaction |
| --- | --- |
| F102C | with no effect |

Variants of: B3
Settings: with tet5c_human TENT5C
Remark: another data set of the same source

| Variant | effect of a mutation on the interaction |
| --- | --- |
| F133L | with no effect |

Variants of: B3
Settings: with tet5c_human TENT5C
Remark: another data set of the same source

| Variant | effect of a mutation on the interaction |
| --- | --- |
| Y87C | with no effect |

Variants of: B3
Settings: with tet5c_human TENT5C
Remark: another data set of the same source

| Variant | effect of a mutation on the interaction |
| --- | --- |
| F133V | with no effect |

Variants of: B4
Settings: with fanca_human FANCA

| Variant | effect of a mutation on the interaction |
| --- | --- |
| F102C | with no effect |

Variants of: B4
Settings: with fanca_human FANCA
Remark: another data set of the same source

| Variant | effect of a mutation on the interaction |
| --- | --- |
| F133L | with no effect |
